Measurements published in paper PMC6823450.
Several values for one entry are separate records, joined by “and”; a condition that tells them apart may be missing. Equal entries are not always repeated.

Experiments:
[1] = molecular target: HIV-1 matrix protein p17 (wild type) (HIV-1) (UniProt P03347); experiment: cross-linking; p17 (2 μg/ml in 20 μl) 2 h at 37 °C in PBS alone or with heparin, then 1 mM BS3 for 2 h at 37 °C; SDS-PAGE and Western blot with anti-p17; bands of 17, 34, 51 and 68 kDa quantified
[2] = molecular target: HIV-1 matrix protein p17 (wild type) (HIV-1) (UniProt P03347); experiment: SPR; p17 immobilised on a CM5 sensorchip by amine coupling (2,500 RU); free p17 (15.7-2000 nM) injected in HBS-EP (10 mM HEPES pH 7.4, 150 mM NaCl, 3 mM EDTA, 0.005% P20) for 2 min; BIAcore X 100; Kd from equilibrium RU (saturation curve, Scatchard) with two softwares; cannot tell dimer, trimer or higher oligomers apart

## HIV-1 matrix protein p17 (wild type) (from UniProt P03347 1-132) (natural protein)
[1]
  % of total protein as dimer: 29%
  % of total protein as tetramer: 3%
  % of total protein as trimer: 12%
  % of total protein remaining monomer: 59%
  fold increase of dimer with heparin against no heparin: 2 fold
  fold increase of tetramer with heparin against no heparin: 3.4 fold
  fold increase of trimer with heparin against no heparin: 4.2 fold
  stoichiometry N: 2 and 3 and 4
[2]
  Kd: 529 nM and 665 nM
